Assay results reported in patent publication US20080227698A1, “OLIGOPEPTIDES FOR TREATMENT OF OSTEOPOROSIS AND OTHER BONE DISEASES AND METHODS THEREOF” (Washington University, priority 2005, published 2008).

What was measured:
LRP6 [1] = biological target: T1, LRP6 (Homo sapiens, UniProt O75581); experiment: LRP6 folding: western blot of ER and mature LRP6 forms in HEK293 cells with Mesd coexpression; type: cell-based; parameters: plasmid pCS-Myc-hLRP6 containing the full-length human LRP6 cDNA; HA; expressed in transfected cells; conditions: HEK293 cells transiently transfected with LRP6 cDNA and Mesd or MesdΔC cDNA
T1 sequence (O75581 20-1613): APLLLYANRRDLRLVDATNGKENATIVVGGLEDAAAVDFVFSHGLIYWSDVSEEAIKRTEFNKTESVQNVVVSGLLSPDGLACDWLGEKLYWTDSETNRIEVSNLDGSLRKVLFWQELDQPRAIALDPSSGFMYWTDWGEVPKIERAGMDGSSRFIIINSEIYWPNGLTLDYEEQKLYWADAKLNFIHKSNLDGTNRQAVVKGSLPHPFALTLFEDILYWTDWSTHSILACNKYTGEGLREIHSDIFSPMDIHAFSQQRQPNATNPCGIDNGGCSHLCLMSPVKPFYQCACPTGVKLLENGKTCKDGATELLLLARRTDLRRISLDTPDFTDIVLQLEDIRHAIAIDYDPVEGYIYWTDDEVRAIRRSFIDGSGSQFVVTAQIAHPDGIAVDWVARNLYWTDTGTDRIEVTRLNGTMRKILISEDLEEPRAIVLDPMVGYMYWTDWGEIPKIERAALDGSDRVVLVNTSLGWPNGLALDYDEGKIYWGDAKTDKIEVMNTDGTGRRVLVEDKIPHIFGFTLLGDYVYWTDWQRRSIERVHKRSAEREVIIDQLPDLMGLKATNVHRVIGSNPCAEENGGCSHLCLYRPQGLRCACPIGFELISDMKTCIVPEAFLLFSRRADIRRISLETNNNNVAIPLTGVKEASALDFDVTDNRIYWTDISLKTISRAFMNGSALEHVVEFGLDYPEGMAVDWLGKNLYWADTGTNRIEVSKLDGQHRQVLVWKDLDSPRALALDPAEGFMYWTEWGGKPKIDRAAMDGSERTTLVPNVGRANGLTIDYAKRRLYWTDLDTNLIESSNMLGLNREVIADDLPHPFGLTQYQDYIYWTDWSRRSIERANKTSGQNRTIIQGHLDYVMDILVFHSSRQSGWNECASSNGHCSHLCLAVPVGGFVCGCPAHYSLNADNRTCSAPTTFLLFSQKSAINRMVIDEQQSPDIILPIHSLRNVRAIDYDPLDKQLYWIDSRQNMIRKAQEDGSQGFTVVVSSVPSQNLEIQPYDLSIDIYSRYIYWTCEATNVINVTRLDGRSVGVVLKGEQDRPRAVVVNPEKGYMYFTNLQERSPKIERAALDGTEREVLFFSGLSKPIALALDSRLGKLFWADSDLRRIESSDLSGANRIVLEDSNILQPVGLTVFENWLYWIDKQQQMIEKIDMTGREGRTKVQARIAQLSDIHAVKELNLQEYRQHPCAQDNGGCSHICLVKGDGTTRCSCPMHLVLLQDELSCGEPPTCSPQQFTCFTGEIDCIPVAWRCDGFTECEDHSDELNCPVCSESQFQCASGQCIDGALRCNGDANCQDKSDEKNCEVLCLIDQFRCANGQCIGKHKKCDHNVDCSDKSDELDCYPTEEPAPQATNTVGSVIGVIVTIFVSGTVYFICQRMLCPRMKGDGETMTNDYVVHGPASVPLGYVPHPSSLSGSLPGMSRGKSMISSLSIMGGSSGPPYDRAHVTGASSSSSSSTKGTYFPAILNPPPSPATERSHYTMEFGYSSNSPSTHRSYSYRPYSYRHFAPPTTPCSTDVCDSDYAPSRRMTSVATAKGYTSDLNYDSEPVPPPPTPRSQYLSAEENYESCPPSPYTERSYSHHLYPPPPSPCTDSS
Procedure: To examine the expression of the LDLR family members, cells cultured in six-well plates were lysed with 0.5 ml lysis buffer (phosphate-buffered saline containing 1% Triton X-100 and 1 mM PMSF) at 4° C. for 30 minutes. Equal quantities of protein were subjected to SDS-PAGE under non-reducing conditions. Following transfer to Immobilon-P membrane, successive incubations with primary antibody and horseradish peroxidase-conjugated secondary antibody were carried out for 60 minutes at room temperature. The immunoreactive proteins were then detected using the ECL system.
To examine the role of this C-terminal region of Mesd on receptor folding, a Mesd mutant (Mesd_C), which lacks the C-terminal region (amino acids 156-191) but retains the endoplasmic reticulum retention signal (REDL) was generated (FIG. 3A). Next, a potential role for MesdΔC on LRP6 folding was evaluated. HEK293 cells were transiently transfected with cDNA for the LRP6 with cotransfection of control vector, or cDNAs for Mesd or MesdΔC. The steady-state levels of LRP6 were analyzed by western blotting with the anti-MYC antibody (FIG. 5A). […] In FIG. 5A, HEK293 cells were transiently transfected with the indicated cDNAs. Cell lysates were analyzed by SDS-PAGE under reducing conditions and western blotted with anti-FLAG or anti-HA antibodies as indicated.

LRP6 [2] = biological target: T1, LRP6; experiment: LRP6-mediated ^125I-DKK1 degradation in LRP6-transduced HT1080 cells; type: cell-based; parameters: plasmid pCS-Myc-hLRP6 containing the full-length human LRP6 cDNA; HA; expressed in transfected cells; host or cells: human HT1080 cells, stably transduced (pLNCX2 retroviral vector); conditions: 500 nM competitor, 4 hours at 37° C.
Procedure: Ligand degradation was performed using the methods as described (Li, Y., J. Biol. Chem. 275: 17187-17194, 2000). Briefly, 2×10^5 cells were seeded into 12-well dishes 1 day prior to assay. Pre-warmed assay buffer (minimal Eagle's medium containing 0.6% BSA with radioligand, 0.6 ml/well) was added to cell monolayers in the absence or the presence of unlabeled 500 nM RAP or 500 nM Mesd, followed by incubation for 4 hours at 37° C. Thereafter, the medium overlying the cell monolayers was removed and proteins were precipitated by addition of BSA to 10 mg/ml and trichloroacetic acid to 20%. […] After each time point, the plates were quickly placed on ice and the assay buffer was replaced with cold stop/strip solution. ^125I-anti-HA IgG that remained on the cell surface was stripped by incubation of cell monolayers with cold stop/strip solution for a total of 20 minutes (0.75 ml for 10 minutes, twice) and counted. Cell monolayers were then solubilized with low-SDS lysis buffer and counted. […] The fraction of internalized ^125I-anti-HA IgG after each time point was calculated and plotted.
RAP is a receptor antagonist for members of the LDLR family, and is able to inhibit the binding of most known ligands of the LDLR family members. […] Cell-surface-bound Myc-tagged DKK proteins were fixed and detected by immunofluorescence staining with anti-Myc antibody. […]

B1: Mesd: recombinant wild-type mouse Mesd, polyhistidine tail at the N-terminus, lacks the signal peptide, expressed in E. coli (protein)
chain: ADTPGEATPPPRKKKDIRDYNDADMARLLEQWEKDDDIEEGDLPEHKRPSAPIDFSKLDPGKPESILKMTKKGKTLMMFVTVSGNPTEKETEEITSLWQGSLFNANYDVQRFIVGSDRAIFMLRDGSYAWEIKDFLVSQDRCAEVTLEGQMYPGKGGGSKEKNKTKPEKAKKKEGDRKPRASKEDNRAGSRREDL
modifications: left off: small tags and cut ends
notes: recombinant wild-type mouse Mesd, polyhistidine tail at the N-terminus, lacks the signal peptide, expressed in E. coli
LRP6 [1]
  Amount of the mature form of LRP6 on coexpression: significantly increased
LRP6 [2]
  Effect of excess unlabeled competitor on increased DKK1 degradation: abolished
